The subject of the data set is Escherichia coli TOP10. In words: shrunken log2 fold change of peptide-encoding DNA abundance (4.5 h post-induction vs induction); higher = less antimicrobial activity (less host growth inhibition). The following applies: time post-induction: 4.5 h; library: site-saturation at positions 5, 18, 19, 20.
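Note: peptides expressed intracellularly from a pBAD plasmid library in pooled LB shake-flask culture, induced with 0.3% L-arabinose, DNA abundance read by NGS, three biological replicates, DESeq2 with apeglm shrinkage.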

With RRIRYRPPRLPRPRPRPGCYPRP, the “shrunken log2 fold change” value is -0.8. Then RRIRNRPPRLPRPRPRPPLEPRP, with 0.193. Then RRIRWRPPRLPRPRPRPRISPRP, with 0.305. Then RRIRCRPPRLPRPRPRPPRLPRP, with 0.873; and RRIRARPPRLPRPRPRPIEVPRP, with 0.0287.

Regarding RRIRLRPPRLPRPRPRPMCFPRP, the “shrunken log2 fold change” value was -0.332.

With RRIRHRPPRLPRPRPRPDHHPRP, the “shrunken log2 fold change” value came out at 0.0587. Then RRIRFRPPRLPRPRPRPEWLPRP, with 0.402. Then RRIRIRPPRLPRPRPRPLTIPRP, with -0.536; and RRIRPRPPRLPRPRPRPTKDPRP, with -0.166; and RRIRGRPPRLPRPRPRPYKSPRP, with -0.135. With RRIRKRPPRLPRPRPRPHHGPRP, the “shrunken log2 fold change” value is -0.11. With RRIRTRPPRLPRPRPRPIFLPRP, the “shrunken log2 fold change” value was -0.145. For RRIRLRPPRLPRPRPRPQASPRP, the “shrunken log2 fold change” value came out at 0.0594. For the sequence RRIRQRPPRLPRPRPRPPQCPRP, the “shrunken log2 fold change” value stood at 0.114.

With RRIRNRPPRLPRPRPRPDALPRP, the “shrunken log2 fold change” value came to 0.0233. Then RRIRFRPPRLPRPRPRPTPIPRP, with 0.485. Then RRIRMRPPRLPRPRPRPPMQPRP, with 0.504.

For RRIRTRPPRLPRPRPRPSECPRP, the “shrunken log2 fold change” value was -0.166. Then RRIRVRPPRLPRPRPRPYYQPRP, with -0.245; and RRIRDRPPRLPRPRPRPHNWPRP, with -0.144; and RRIRLRPPRLPRPRPRPPSMPRP, with -0.127.

As to RRIRKRPPRLPRPRPRPFVCPRP, the “shrunken log2 fold change” value is 0.0717. Then RRIRCRPPRLPRPRPRPTPGPRP, with 0.589.

As to RRIRCRPPRLPRPRPRPVTCPRP, the “shrunken log2 fold change” value was -0.121. Then RRIRCRPPRLPRPRPRPEFDPRP, with -0.0199. On to RRIRDRPPRLPRPRPRPECNPRP, for which the “shrunken log2 fold change” value is 0.741. Then RRIRARPPRLPRPRPRPNSCPRP, with -0.205; and RRIRYRPPRLPRPRPRPAPAPRP, with 0.0272. Then RRIRQRPPRLPRPRPRPGIRPRP, with 0.346; and RRIRMRPPRLPRPRPRPTYDPRP, with 0.473. Turning to RRIRVRPPRLPRPRPRPAPFPRP, the “shrunken log2 fold change” value was 0.0259. Then RRIRDRPPRLPRPRPRPGCQPRP, with 0.341; and RRIRNRPPRLPRPRPRPNVWPRP, with 0.0184; and RRIRLRPPRLPRPRPRPPLEPRP, with 0.752. For RRIRLRPPRLPRPRPRPKSGPRP, the “shrunken log2 fold change” value is 0.143. Then RRIRTRPPRLPRPRPRPHICPRP, with -0.13. Then RRIRLRPPRLPRPRPRPRSHPRP, with 0.195; and RRIRQRPPRLPRPRPRPKKCPRP, with -0.0485; and RRIRQRPPRLPRPRPRPRTSPRP, with 0.131. Then RRIRDRPPRLPRPRPRPEKNPRP, with 0.489. Regarding RRIRIRPPRLPRPRPRPQGWPRP, the “shrunken log2 fold change” value was -0.00188. Consider RRIRSRPPRLPRPRPRPHRPPRP, for which the “shrunken log2 fold change” value stood at 0.0831. Then RRIRRRPPRLPRPRPRPDNMPRP, with -0.259; and RRIRPRPPRLPRPRPRPDKWPRP, with -0.0254. Then RRIRWRPPRLPRPRPRPIDKPRP, with -0.105. Then RRIRDRPPRLPRPRPRPKYSPRP, with -0.0792. Turning to RRIRARPPRLPRPRPRPGFIPRP, the “shrunken log2 fold change” value is -0.339.

Consider RRIRVRPPRLPRPRPRPTWHPRP, for which the “shrunken log2 fold change” value worked out at 0.384. As for RRIRHRPPRLPRPRPRPWMEPRP, the “shrunken log2 fold change” value was -0.00645. Then RRIRDRPPRLPRPRPRPNIFPRP, with -0.0871. For RRIRARPPRLPRPRPRPTCCPRP, the “shrunken log2 fold change” value amounted to 0.653. For the sequence RRIRVRPPRLPRPRPRPMQDPRP, the “shrunken log2 fold change” value was determined as 0.0217. Then RRIRARPPRLPRPRPRPQMQPRP, with 0.508. Then RRIRLRPPRLPRPRPRPPASPRP, with 0.561. Then RRIRYRPPRLPRPRPRPEIEPRP, with -0.0892. Turning to RRIRHRPPRLPRPRPRPIKRPRP, the “shrunken log2 fold change” value is -0.0154. As for RRIRRRPPRLPRPRPRPTWAPRP, the “shrunken log2 fold change” value worked out at 0.7. Then RRIRGRPPRLPRPRPRPQCYPRP, with -0.0337. Then RRIRPRPPRLPRPRPRPNRIPRP, with -0.132; and RRIRRRPPRLPRPRPRPRFNPRP, with -0.189. For the sequence RRIRCRPPRLPRPRPRPNDWPRP, the “shrunken log2 fold change” value was -0.166. Then RRIRIRPPRLPRPRPRPESAPRP, with 0.0116; and RRIRQRPPRLPRPRPRPEVYPRP, with -0.0137.

Consider RRIRYRPPRLPRPRPRPNNAPRP, for which the “shrunken log2 fold change” value is -1.1. Then RRIRFRPPRLPRPRPRPPKCPRP, with 0.0793; and RRIRARPPRLPRPRPRPQEVPRP, with -0.0933; and RRIRMRPPRLPRPRPRPRIIPRP, with -0.138. Then RRIRYRPPRLPRPRPRPEVPPRP, with -0.0684; and RRIRLRPPRLPRPRPRPVVEPRP, with 0.175; and RRIRWRPPRLPRPRPRPQPSPRP, with 0.287. Then RRIRWRPPRLPRPRPRPKMTPRP, with 0.175. With RRIRWRPPRLPRPRPRPIYMPRP, the “shrunken log2 fold change” value was -0.118. Then RRIRTRPPRLPRPRPRPDKSPRP, with -0.0816; and RRIRYRPPRLPRPRPRPCERPRP, with 0.0112. Then RRIRLRPPRLPRPRPRPTNLPRP, with -0.27.

As for RRIRHRPPRLPRPRPRPAFYPRP, the “shrunken log2 fold change” value was -0.332. Then RRIRERPPRLPRPRPRPNVRPRP, with 0.0403.

In the case of RRIRTRPPRLPRPRPRPNMCPRP, the “shrunken log2 fold change” value worked out at 0.00985. Then RRIRTRPPRLPRPRPRPDMQPRP, with 1.96. Take RRIRWRPPRLPRPRPRPDKKPRP: the “shrunken log2 fold change” value was -0.0507. As to RRIRVRPPRLPRPRPRPCTLPRP, the “shrunken log2 fold change” value is -0.196. Then RRIRHRPPRLPRPRPRPQFEPRP, with -0.0276. Then RRIRQRPPRLPRPRPRPNLVPRP, with 0.0528. Then RRIRMRPPRLPRPRPRPSEWPRP, with 0.0913; and RRIRDRPPRLPRPRPRPPINPRP, with -0.205. Regarding RRIRVRPPRLPRPRPRPSRMPRP, the “shrunken log2 fold change” value is -0.0384.

Take RRIRSRPPRLPRPRPRPAMAPRP: the “shrunken log2 fold change” value was 1.64.

For RRIRWRPPRLPRPRPRPNDYPRP, the “shrunken log2 fold change” value is -1.02.

For the sequence RRIRPRPPRLPRPRPRPFNAPRP, the “shrunken log2 fold change” value was -0.287. Then RRIRCRPPRLPRPRPRPQDPPRP, with -0.0952. Then RRIRIRPPRLPRPRPRPYVLPRP, with -0.588. Then RRIRSRPPRLPRPRPRPRMCPRP, with -0.155.

Regarding RRIRMRPPRLPRPRPRPFSYPRP, the “shrunken log2 fold change” value was -0.029. Then RRIRWRPPRLPRPRPRPAFYPRP, with 0.371; and RRIRKRPPRLPRPRPRPLFWPRP, with 0.593. Then RRIRGRPPRLPRPRPRPDECPRP, with -0.00184; and RRIRIRPPRLPRPRPRPSTAPRP, with -0.263. RRIRDRPPRLPRPRPRPLFCPRP: the “shrunken log2 fold change” value was 0.208.

Consider RRIRKRPPRLPRPRPRPVSTPRP, for which the “shrunken log2 fold change” value is -0.102.

In the case of RRIRIRPPRLPRPRPRPGCQPRP, the “shrunken log2 fold change” value was -0.0196. Then RRIRERPPRLPRPRPRPVNLPRP, with -0.441; and RRIRWRPPRLPRPRPRPYAVPRP, with 0.0097. Then RRIRVRPPRLPRPRPRPYDQPRP, with -0.192; and RRIRSRPPRLPRPRPRPHNWPRP, with -0.248. Then RRIRQRPPRLPRPRPRPIMPPRP, with -0.361; and RRIRGRPPRLPRPRPRPHHCPRP, with -0.118. Take RRIRHRPPRLPRPRPRPVGFPRP: the “shrunken log2 fold change” value is -0.203.

Consider RRIRVRPPRLPRPRPRPYMHPRP, for which the “shrunken log2 fold change” value was -0.3.

As to RRIRCRPPRLPRPRPRPQSLPRP, the “shrunken log2 fold change” value stood at 0.0939. Then RRIRQRPPRLPRPRPRPELVPRP, with -0.142; and RRIRIRPPRLPRPRPRPLHCPRP, with -1.13.

For RRIRPRPPRLPRPRPRPVKYPRP, the “shrunken log2 fold change” value is -0.303. Then RRIRFRPPRLPRPRPRPTCGPRP, with 0.00559; and RRIRNRPPRLPRPRPRPQRPPRP, with 0.206; and RRIRTRPPRLPRPRPRPITQPRP, with -0.168. With RRIRERPPRLPRPRPRPRMWPRP, the “shrunken log2 fold change” value came to 0.302.

Take RRIRGRPPRLPRPRPRPKGNPRP: the “shrunken log2 fold change” value came to 0.598.

In the case of RRIRTRPPRLPRPRPRPGLCPRP, the “shrunken log2 fold change” value was -0.00367. On to RRIRGRPPRLPRPRPRPFEGPRP, for which the “shrunken log2 fold change” value amounted to 0.0595. Then RRIRYRPPRLPRPRPRPTGIPRP, with -0.114; and RRIRNRPPRLPRPRPRPENAPRP, with -0.133; and RRIRVRPPRLPRPRPRPRTLPRP, with -0.222. Then RRIRARPPRLPRPRPRPWWKPRP, with -0.00149. Then RRIRVRPPRLPRPRPRPGYLPRP, with -0.14.

For the origin of these results see the supplement of paper PMC9112550, “Optimization of the antimicrobial peptide Bac7 by deep mutational scanning” (BMC Biology, 2022).
